Results on 6 sequences are retold here after the supplement of paper PMC5998384.

In data set [1] the test system is HeLa Kyoto. Briefly: solubility change mitosis vs G1/S (difference of NP-40 vs SDS log2 ratios) (log2 ratio difference); higher = more soluble in mitosis.
The subject of data set [2] is HeLa Kyoto. Briefly: thermal stability score vs G1/S (z-score of summed log2 fold changes over temperatures); higher = more thermally stable than in G1/S.
Data set [3] deals with HeLa Kyoto. The data set is described as follows: melting temperature (median over replicates), in situ; higher = more thermally stable.
For data set [4], the system named is HeLa Kyoto. Briefly: solubility in G1/S (NP-40 vs SDS abundance) (log2 ratio); higher = more soluble. The following applies: cell cycle stage: G1/S.
The mark [5] stands for this setting: cell cycle stage: early G1 (4.5 h after nocodazole release).
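Throughout, for melting temperature (median over replicates), in situ: HeLa Kyoto cells synchronized by double thymidine or nocodazole block, proteins quantified by TMT10plex mass spectrometry, three independent biological replicates.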
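Throughout, for solubility change mitosis vs G1/S (difference of NP-40 vs SDS log2 ratios): synchronized HeLa Kyoto cells (double thymidine block for G1/S, nocodazole release for mitosis), protein amounts in NP-40 versus SDS lysates quantified by mass spectrometry, three biological replicates.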
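Throughout, for solubility in G1/S (NP-40 vs SDS abundance): HeLa Kyoto cells arrested at G1/S by double thymidine block, proteins quantified by TMT10plex mass spectrometry in mild NP-40 versus SDS extracts, three biological replicates.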
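Throughout, for thermal stability score vs G1/S (z-score of summed log2 fold changes over temperatures): synchronized HeLa Kyoto cells, proteins quantified by TMT10plex mass spectrometry, three biological replicates, mitosis taken 0.5 h after nocodazole release, G1/S directly after double thymidine block.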

For the sequence “MTATVENLTFQKDTLGNAVDKNTSRLELRSYSLAGRHGSTEPLVLAWSSQFRRLTWGCALDALHRSPCVAASQHGVTHLIRSSRTPHSTRCRKEDAQPGHHGNGAASVTAQARGQRSVLQVPLPVPRSCLFSESFVVSVSSQSRFLASVPGTGVQRSTAADMAASTAAGKQRIPKVAKVKNKAPAEVQITAEQLLREAKERELELLPPPPQQKITDEEELNDYKLRKRKTFEDNIRKNRTVISNWIKYAQWEESLKEIQRARSIYERALDVDYRNITLWLKYAEMEMKNRQVNHARNIWDRAITTLPRVNQFWYKYTYMEEMLGNVAGARQVFERWMEWQPEEQAWHSYINFELRYKEVDRARTIYERFVLVHPDVKNWIKYARFEEKHAYFAHARKVYERAVEFFGDEHMDEHLYVAFAKFEENQKEFERVRVIYKYALDRISKQDAQELFKNYTIFEKKFGDRRGIEDIIVSKRRFQYEEEVKANPHNYDAWFDYLRLVESDAEAEAVREVYERAIANVPPIQEKRHWKRYIYLWINYALYEELEAKDPERTRQVYQASLELIPHKKFTFAKMWILYAQFEIRQKNLSLARRALGTSIGKCPKNKLFKVYIELELQLREFDRCRKLYEKFLEFGPENCTSWIKFAELETILGDIDRARAIYELAISQPRLDMPEVLWKSYIDFEIEQEETERTRNLYRRLLQRTQHVKVWISFAQFELSSGKEGSLTKCRQIYEEANKTMRNCEEKEERLMLLESWRSFEEEFGTASDKERVDKLMPEKVKKRRKVQTDDGSDAGWEEYFDYIFPEDAANQPNLKLLAMAKLWKKQQQEKEDAEHHPDEDVDESES [CRNKL1]”, the “solubility change mitosis (log2)” value in the data set with HeLa Kyoto [1] stood at 0.252. Moreover, the thermal stability score in the data set with HeLa Kyoto [2] (setting [5]) is 1.73; in the data set on HeLa Kyoto [2] (cell cycle stage: mitosis), 2.31. Besides, the melting temperature was 47.4 °C in the data set with HeLa Kyoto [3] (cell cycle stage: G1/S) and 48 °C in the data set with HeLa Kyoto [3] (cell cycle stage: mitosis). Besides, in the data set on HeLa Kyoto [4], the “solubility in G1/S (log2)” value is -0.64.

On to “MTCWLRGVTATFGRPAEWPGYLSHLCGRSAAMDLGPMRKSYRGDREAFEETHLTSLDPVKQFAAWFEEAVQCPDIGEANAMCLATCTRDGKPSARMLLLKGFGKDGFRFFTNFESRKGKELDSNPFASLVFYWEPLNRQVRVEGPVKKLPEEEAECYFHSRPKSSQIGAVVSHQSSVIPDREYLRKKNEELEQLYQDQEVPKPKSWGGYVLYPQVMEFWQGQTNRLHDRIVFRRGLPTGDSPLGPMTHRGEEDWLYERLAP [PNPO]”, for which the “solubility change mitosis (log2)” value with HeLa Kyoto [1] was -0.0358. Also, the thermal stability score with HeLa Kyoto [2] (setting [5]) is -1.68; in the data set on HeLa Kyoto [2] (cell cycle stage: mitosis), -1.82. The melting temperature in the data set with HeLa Kyoto [3] (cell cycle stage: G1/S) was 53.5 °C; in the data set with HeLa Kyoto [3] (cell cycle stage: mitosis) it was 54.3 °C. The “solubility in G1/S (log2)” value in the data set with HeLa Kyoto [4] amounted to 0.682.

With “MTDAAVSFAKDFLAGGVAAAISKTAVAPIERVKLLLQVQHASKQITADKQYKGIIDCVVRIPKEQGVLSFWRGNLANVIRYFPTQALNFAFKDKYKQIFLGGVDKRTQFWLYFAGNLASGGAAGATSLCFVYPLDFARTRLAADVGKAGAEREFRGLGDCLVKIYKSDGIKGLYQGFNVSVQGIIIYRAAYFGIYDTAKGMLPDPKNTHIVISWMIAQTVTAVAGLTSYPFDTVRRRMMMQSGRKGTDIMYTGTLDCWRKIARDEGGKAFFKGAWSNVLRGMGGAFVLVLYDEIKKYT [SLC25A5]”, the “solubility change mitosis (log2)” value in the data set on HeLa Kyoto [1] is -0.12. The thermal stability score with HeLa Kyoto [2] (setting [5]) is -2.25; in the data set with HeLa Kyoto [2] (cell cycle stage: mitosis), -3.52. Moreover, the melting temperature in the data set on HeLa Kyoto [3] (cell cycle stage: G1/S) stood at 56.9 °C; in the data set with HeLa Kyoto [3] (cell cycle stage: mitosis), 55.9 °C. For the same sequence, in the data set with HeLa Kyoto [4], the “solubility in G1/S (log2)” value was -0.308.

For the sequence “MTEADVNPKAYPLADAHLTKKLLDLVQQSCNYKQLRKGANEATKTLNRGISEFIVMAADAEPLEIILHLPLLCEDKNVPYVFVRSKQALGRACGVSRPVIACSVTIKEGSQLKQQIQSIQQSIERLLV [SNU13]”, the “solubility change mitosis (log2)” value in the data set on HeLa Kyoto [1] came to 1.04. Further, the thermal stability score in the data set on HeLa Kyoto [2] (setting [5]) is -3.84; in the data set on HeLa Kyoto [2] (cell cycle stage: mitosis), -7.97. For the same sequence, the melting temperature in the data set on HeLa Kyoto [3] (cell cycle stage: G1/S) was found to be 54.6 °C; in the data set on HeLa Kyoto [3] (cell cycle stage: mitosis) it was 53 °C. Further, in the data set with HeLa Kyoto [4], the “solubility in G1/S (log2)” value was -0.625.

As to “MTECFLPPTSSPSEHRRVEHGSGLTRTPSSEEISPTKFPGLYRTGEPSPPHDILHEPPDVVSDDEKDHGKKKGKFKKKEKRTEGYAAFQEDSSGDEAESPSKMKRSKGIHVFKKPSFSKKKEKDFKIKEKPKEEKHKEEKHKEEKHKEKKSKDLTAADVVKQWKEKKKKKKPIQEPEVPQIDVPNLKPIFGIPLADAVERTMMYDGIRLPAVFRECIDYVEKYGMKCEGIYRVSGIKSKVDELKAAYDREESTNLEDYEPNTVASLLKQYLRDLPENLLTKELMPRFEEACGRTTETEKVQEFQRLLKELPECNYLLISWLIVHMDHVIAKELETKMNIQNISIVLSPTVQISNRVLYVFFTHVQELFGNVVLKQVMKPLRWSNMATMPTLPETQAGIKEEIRRQEFLLNCLHRDLQGGIKDLSKEERLWEVQRILTALKRKLREAKRQECETKIAQEIASLSKEDVSKEEMNENEEVINILLAQENEILTEQEELLAMEQFLRRQIASEKEEIERLRAEIAEIQSRQQHGRSETEEYSSESESESEDEEELQIILEDLQRQNEELEIKNNHLNQAIHEEREAIIELRVQLRLLQMQRAKAEQQAQEDEEPEWRGGAVQPPRDGVLEPKAAKEQPKAGKEPAKPSPSRDRKETSI [RALBP1]”, the “solubility change mitosis (log2)” value in the data set with HeLa Kyoto [1] came to 0.12. In addition, the thermal stability score is 0.156 with HeLa Kyoto [2] (setting [5]) and 0.441 in the data set with HeLa Kyoto [2] (cell cycle stage: mitosis). Besides, the melting temperature in the data set on HeLa Kyoto [3] (cell cycle stage: G1/S) came out at 47.8 °C; in the data set with HeLa Kyoto [3] (cell cycle stage: mitosis), 50.4 °C. For the same sequence, the “solubility in G1/S (log2)” value in the data set with HeLa Kyoto [4] came out at 0.0284.

For “MTERFDCHHCNESLFGKKYILREESPYCVVCFETLFANTCEECGKPIGCDCKDLSYKDRHWHEACFHCSQCRNSLVDKPFAAKEDQLLCTDCYSNEYSSKCQECKKTIMPGTRKMEYKGSSWHETCFICHRCQQPIGTKSFIPKDNQNFCVPCYEKQHAMQCVQCKKPITTGGVTYREQPWHKECFVCTACRKQLSGQRFTARDDFAYCLNCFCDLYAKKCAGCTNPISGLGGTKYISFEERQWHNDCFNCKKCSLSLVGRGFLTERDDILCPDCGKDI [FHL2]”, the “solubility change mitosis (log2)” value in the data set with HeLa Kyoto [1] is -0.0906. Moreover, the thermal stability score in the data set on HeLa Kyoto [2] (setting [5]) is -1.09; in the data set on HeLa Kyoto [2] (cell cycle stage: mitosis), -1.97. Further, the melting temperature came to 52 °C in the data set on HeLa Kyoto [3] (cell cycle stage: G1/S) and 51.9 °C in the data set with HeLa Kyoto [3] (cell cycle stage: mitosis). Moreover, the “solubility in G1/S (log2)” value in the data set on HeLa Kyoto [4] is -0.304.
